Data published in patent US20240392271, “ENGINEERED CASX REPRESSOR SYSTEMS” (Scribe Therapeutics Inc., published 2024).

How the values were obtained:
ELXR2-ZIM3 (#2.A) = biological target: T1, ELXR2-ZIM3 (#2.A) (synthetic construct); assay: cell_activity; PAM TTC; day 50; settings: tags: DNMT3A CD, DNMT3L ID, ZIM3 KRAB fusion, NLS
T1 chain: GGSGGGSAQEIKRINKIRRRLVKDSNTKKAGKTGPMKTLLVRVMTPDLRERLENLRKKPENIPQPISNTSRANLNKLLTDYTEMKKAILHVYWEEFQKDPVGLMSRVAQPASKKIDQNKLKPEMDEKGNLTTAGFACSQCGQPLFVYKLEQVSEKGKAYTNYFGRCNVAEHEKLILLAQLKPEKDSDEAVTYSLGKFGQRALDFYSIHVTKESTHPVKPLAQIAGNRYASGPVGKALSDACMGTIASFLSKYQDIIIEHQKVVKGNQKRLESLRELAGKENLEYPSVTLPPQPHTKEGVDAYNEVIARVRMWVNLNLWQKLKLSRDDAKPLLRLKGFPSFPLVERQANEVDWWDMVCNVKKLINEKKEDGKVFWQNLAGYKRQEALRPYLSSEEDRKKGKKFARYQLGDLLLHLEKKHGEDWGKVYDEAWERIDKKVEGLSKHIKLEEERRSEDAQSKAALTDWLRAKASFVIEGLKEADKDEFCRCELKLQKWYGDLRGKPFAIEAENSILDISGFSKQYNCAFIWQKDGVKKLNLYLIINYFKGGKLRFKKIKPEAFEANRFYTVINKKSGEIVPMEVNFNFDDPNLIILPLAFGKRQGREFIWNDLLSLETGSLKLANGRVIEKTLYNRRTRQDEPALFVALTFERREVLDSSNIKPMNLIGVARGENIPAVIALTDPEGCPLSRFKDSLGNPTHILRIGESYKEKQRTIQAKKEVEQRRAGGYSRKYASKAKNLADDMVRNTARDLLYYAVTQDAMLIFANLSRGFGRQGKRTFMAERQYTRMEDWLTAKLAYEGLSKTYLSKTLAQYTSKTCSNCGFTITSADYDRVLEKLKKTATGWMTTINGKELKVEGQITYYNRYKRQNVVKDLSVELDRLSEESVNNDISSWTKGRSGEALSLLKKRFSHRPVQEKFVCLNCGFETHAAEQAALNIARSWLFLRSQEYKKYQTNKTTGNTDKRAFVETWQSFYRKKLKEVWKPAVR

ELXR5-ZNF10 (#5.B) = ELXR5-ZNF10 (#5.B) (synthetic construct); assay: cell_activity; PAM TTC; day 73; settings: tags: DNMT3A CD, DNMT3L ID, ZNF10 KRAB fusion, NLS
Sequence of ELXR5-ZNF10 (#5.B) (synthetic construct) (chain, as listed by the source): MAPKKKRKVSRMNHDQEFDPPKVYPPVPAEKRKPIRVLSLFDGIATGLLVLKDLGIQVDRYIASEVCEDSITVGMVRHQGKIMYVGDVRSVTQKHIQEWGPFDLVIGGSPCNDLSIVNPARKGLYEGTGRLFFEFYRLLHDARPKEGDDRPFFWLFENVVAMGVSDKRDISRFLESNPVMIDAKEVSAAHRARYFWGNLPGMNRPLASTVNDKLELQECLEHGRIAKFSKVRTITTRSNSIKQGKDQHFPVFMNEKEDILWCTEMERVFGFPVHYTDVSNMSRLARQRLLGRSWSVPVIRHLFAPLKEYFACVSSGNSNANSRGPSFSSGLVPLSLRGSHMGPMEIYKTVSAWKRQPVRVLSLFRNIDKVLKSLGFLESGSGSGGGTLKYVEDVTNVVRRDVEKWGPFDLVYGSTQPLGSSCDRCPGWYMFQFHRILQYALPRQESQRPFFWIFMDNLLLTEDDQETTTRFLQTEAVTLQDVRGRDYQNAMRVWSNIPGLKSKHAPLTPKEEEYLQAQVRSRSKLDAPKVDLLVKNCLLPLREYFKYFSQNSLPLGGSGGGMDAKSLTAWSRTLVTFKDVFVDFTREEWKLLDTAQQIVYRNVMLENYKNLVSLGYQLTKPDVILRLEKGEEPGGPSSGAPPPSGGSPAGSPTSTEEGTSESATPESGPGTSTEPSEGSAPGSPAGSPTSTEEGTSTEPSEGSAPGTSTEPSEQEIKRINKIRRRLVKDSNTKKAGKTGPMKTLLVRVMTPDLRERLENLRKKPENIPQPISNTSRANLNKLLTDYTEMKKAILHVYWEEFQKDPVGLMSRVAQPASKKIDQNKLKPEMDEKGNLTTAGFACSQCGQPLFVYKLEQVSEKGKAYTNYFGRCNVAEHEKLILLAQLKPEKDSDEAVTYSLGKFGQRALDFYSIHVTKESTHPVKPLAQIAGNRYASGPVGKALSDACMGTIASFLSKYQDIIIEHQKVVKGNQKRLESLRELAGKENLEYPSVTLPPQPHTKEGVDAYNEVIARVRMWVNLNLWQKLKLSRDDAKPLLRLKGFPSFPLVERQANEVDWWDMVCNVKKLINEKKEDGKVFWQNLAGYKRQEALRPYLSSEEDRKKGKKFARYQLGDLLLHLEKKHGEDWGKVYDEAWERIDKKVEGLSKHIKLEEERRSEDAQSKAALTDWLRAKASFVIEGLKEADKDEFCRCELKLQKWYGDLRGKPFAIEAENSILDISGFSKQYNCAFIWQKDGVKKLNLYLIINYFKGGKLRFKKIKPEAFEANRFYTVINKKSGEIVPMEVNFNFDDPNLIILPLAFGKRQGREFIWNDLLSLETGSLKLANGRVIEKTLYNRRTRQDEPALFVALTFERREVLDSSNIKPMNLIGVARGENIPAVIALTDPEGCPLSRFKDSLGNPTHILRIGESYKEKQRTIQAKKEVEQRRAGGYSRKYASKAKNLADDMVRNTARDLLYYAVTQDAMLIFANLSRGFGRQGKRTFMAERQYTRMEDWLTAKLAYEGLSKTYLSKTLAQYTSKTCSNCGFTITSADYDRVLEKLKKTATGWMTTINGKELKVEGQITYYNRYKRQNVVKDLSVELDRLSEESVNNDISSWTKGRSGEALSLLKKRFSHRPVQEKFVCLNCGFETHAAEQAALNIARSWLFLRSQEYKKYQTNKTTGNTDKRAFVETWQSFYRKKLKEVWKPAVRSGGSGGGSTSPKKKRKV

ELXR5-ZIM3 (#5.A) = ELXR5-ZIM3 (#5.A) (synthetic construct); assay: cell_activity; PAM TTC; day 73; settings: tags: DNMT3A CD, DNMT3L ID, ZIM3 KRAB fusion, NLS
Sequence of ELXR5-ZIM3 (#5.A) (synthetic construct) (chain, as listed by the source): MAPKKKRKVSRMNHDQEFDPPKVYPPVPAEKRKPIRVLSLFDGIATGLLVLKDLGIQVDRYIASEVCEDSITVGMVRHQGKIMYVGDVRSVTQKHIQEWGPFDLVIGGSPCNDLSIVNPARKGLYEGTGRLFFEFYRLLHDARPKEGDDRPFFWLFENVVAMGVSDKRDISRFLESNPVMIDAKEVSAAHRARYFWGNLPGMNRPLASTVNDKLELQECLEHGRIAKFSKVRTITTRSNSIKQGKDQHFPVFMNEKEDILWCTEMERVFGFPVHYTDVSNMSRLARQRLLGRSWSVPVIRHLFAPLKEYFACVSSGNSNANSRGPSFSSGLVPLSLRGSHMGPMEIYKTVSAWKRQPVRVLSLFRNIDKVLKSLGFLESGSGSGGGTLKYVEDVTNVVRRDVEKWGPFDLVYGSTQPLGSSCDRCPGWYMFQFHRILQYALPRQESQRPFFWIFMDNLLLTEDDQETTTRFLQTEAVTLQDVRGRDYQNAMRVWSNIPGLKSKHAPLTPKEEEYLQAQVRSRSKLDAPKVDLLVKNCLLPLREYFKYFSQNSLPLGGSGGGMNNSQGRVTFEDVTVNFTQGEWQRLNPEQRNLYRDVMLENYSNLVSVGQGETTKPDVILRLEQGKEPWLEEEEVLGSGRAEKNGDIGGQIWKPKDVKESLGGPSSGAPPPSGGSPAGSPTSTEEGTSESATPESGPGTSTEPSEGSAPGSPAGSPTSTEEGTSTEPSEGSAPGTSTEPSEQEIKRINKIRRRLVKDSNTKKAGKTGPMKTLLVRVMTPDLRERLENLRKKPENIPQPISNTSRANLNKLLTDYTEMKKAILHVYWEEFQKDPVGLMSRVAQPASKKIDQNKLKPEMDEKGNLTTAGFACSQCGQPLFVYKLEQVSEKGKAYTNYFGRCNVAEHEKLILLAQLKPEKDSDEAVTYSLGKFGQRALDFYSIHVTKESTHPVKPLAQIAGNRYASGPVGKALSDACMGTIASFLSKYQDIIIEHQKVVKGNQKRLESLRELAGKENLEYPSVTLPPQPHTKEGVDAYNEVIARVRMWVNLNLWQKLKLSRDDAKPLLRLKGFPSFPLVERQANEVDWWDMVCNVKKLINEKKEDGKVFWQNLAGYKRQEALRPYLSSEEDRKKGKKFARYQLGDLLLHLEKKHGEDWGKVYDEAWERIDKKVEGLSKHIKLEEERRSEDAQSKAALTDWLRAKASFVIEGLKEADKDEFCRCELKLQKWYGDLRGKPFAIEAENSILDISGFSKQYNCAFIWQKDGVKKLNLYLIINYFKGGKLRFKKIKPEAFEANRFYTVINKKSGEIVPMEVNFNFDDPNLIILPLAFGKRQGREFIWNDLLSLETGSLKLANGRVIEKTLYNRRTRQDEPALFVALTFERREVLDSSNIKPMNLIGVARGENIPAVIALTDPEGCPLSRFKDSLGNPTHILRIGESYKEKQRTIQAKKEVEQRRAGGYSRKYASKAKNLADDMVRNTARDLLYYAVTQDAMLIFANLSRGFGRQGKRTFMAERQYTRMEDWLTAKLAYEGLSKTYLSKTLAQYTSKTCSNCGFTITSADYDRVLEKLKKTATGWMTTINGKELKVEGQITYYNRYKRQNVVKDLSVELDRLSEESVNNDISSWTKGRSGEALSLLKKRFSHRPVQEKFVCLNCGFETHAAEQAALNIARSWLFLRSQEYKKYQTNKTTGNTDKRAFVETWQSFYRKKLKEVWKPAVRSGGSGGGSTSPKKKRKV

ELXR4-ZIM3 (#4.A) = biological target: T2, ELXR4-ZIM3 (#4.A) (synthetic construct); assay: cell_activity; PAM TTC; day 73; settings: tags: DNMT3A CD, DNMT3L ID, ZIM3 KRAB fusion, NLS
T2 chain: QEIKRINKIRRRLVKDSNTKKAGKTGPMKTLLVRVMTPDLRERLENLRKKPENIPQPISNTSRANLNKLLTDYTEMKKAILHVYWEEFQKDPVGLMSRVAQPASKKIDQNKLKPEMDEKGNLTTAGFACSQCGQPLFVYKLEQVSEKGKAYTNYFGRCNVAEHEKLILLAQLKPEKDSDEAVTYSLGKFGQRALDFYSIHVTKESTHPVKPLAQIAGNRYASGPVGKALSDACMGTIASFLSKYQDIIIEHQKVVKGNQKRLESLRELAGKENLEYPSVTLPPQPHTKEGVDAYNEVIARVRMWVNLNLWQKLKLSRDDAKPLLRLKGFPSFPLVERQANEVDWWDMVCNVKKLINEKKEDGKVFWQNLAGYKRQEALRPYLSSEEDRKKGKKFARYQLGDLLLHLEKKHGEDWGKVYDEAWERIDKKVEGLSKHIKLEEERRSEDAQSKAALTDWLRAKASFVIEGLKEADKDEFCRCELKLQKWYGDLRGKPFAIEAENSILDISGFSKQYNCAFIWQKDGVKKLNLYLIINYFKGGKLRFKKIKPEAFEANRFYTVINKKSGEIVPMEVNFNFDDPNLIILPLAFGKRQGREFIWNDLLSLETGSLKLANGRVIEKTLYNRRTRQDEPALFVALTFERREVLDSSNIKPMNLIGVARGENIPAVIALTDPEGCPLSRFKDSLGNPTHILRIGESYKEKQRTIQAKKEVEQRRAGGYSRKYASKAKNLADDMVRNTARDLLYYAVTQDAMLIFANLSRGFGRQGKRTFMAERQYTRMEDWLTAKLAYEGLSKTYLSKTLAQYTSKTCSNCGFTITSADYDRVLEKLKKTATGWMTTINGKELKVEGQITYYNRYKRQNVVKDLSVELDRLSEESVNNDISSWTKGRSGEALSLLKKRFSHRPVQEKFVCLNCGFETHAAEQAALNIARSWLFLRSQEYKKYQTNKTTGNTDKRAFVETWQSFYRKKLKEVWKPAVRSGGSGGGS

ELXR4-ZNF10 (#4.B) = biological target: T3, ELXR4-ZNF10 (#4.B) (synthetic construct); assay: cell_activity; PAM TTC; day 73; settings: tags: DNMT3A CD, DNMT3L ID, ZNF10 KRAB fusion, NLS
T3 chain: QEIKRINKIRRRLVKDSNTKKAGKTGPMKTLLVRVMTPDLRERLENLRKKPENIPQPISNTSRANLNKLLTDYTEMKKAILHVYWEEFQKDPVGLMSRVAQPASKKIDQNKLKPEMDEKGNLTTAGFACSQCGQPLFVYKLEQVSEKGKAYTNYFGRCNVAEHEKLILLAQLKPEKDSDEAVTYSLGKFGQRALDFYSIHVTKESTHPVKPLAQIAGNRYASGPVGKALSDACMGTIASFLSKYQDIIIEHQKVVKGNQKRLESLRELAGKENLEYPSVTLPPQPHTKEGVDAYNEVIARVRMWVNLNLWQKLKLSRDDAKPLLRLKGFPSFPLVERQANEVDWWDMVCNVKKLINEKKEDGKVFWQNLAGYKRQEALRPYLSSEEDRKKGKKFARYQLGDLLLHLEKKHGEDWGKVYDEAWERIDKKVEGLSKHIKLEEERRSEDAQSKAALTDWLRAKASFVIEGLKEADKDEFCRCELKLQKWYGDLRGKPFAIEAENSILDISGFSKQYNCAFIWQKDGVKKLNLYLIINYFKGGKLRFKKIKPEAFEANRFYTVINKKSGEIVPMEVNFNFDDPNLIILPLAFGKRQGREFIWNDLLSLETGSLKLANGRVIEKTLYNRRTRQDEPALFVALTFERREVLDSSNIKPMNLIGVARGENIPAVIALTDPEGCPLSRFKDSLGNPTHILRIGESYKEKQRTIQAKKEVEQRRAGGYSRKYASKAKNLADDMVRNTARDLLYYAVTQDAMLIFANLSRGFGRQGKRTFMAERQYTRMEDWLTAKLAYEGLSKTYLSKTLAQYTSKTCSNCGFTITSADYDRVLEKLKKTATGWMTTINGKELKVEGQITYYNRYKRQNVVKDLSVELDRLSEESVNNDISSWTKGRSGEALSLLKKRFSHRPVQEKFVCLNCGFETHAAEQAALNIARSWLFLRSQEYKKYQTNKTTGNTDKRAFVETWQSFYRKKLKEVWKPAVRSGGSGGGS

B1: gRNA scaffold 174 + spacer 7.37 ; B2M target 7.37 (ssRNA ; dsDNA)
RNA: ACUGGCGCUUUUAUCUGAUUACUUUGAGAGCCAUCACCAGCGACUAUGUCGUAGUGGGUAAAGCUCCCUCUUCGGAGGGAGCAUCAAAGGGCCGAGAUGUCUCGCUCCG
DNA 1: GGCCGAGATGTCTCGCTCCG
DNA 2: CGGAGCGAGACATCTCGGCC
activity (ELXR2-ZIM3 (#2.A)): 58.8 % HLA-negative cells | activity (ELXR5-ZNF10 (#5.B)): 60.8 % HLA-negative cells | activity (ELXR5-ZIM3 (#5.A)): 74.9 % HLA-negative cells | activity (ELXR4-ZIM3 (#4.A)): 69 % HLA-negative cells | activity (ELXR4-ZNF10 (#4.B)): 55.2 % HLA-negative cells
